Measurements: article PMC3975686 (Journal of proteome research, 2013)
One block for each binder: values may come before it.

How the values were obtained:
Assay in all cases: ITC
[1] = target: T1, ezrin FERM domain (residues 1-297) (human, UniProt P15311 1-297)
[2] = target: T1, ezrin FERM domain (residues 1-297); remark: listed apart in the source
human RhoGDI = target: T2, human RhoGDI (human, UniProt P52565 1-204)
T2 sequence (looked up): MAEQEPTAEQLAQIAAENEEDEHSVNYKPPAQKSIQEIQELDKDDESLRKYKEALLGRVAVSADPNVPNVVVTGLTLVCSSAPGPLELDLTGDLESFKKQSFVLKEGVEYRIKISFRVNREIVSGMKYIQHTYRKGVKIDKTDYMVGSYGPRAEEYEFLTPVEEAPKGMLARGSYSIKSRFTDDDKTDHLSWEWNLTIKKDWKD

T1 sequence (P15311 1-297): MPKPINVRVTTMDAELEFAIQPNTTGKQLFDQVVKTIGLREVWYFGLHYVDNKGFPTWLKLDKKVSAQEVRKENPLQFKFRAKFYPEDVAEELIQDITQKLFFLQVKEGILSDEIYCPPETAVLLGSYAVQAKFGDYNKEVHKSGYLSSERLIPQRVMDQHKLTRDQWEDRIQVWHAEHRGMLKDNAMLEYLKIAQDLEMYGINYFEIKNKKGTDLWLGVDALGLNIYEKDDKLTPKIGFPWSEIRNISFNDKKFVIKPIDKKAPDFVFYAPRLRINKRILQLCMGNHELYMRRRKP

Ka [1]: 1.13e+06 M⁻¹
B1: ezrin C-terminal fragment (residues 477-586) (domain or fragment, human, UniProt P15311 477-586, looked up)
chain: VYEPVSYHVQESLQDEGAEPTGYSAELSSEGIRDDRNEEKRITEAEKNERVQRQLLTLSSELSQARDENKRTHNDIIHNENMRQGRDKYKTLRQIRQGNTKQRIDEFEAL

dH [2]: -205 ± 65.1 kJ/mol
stoichiometry N [2]: 0.274 ± 0.0243
B2: IQGAP1 Repeats (IQGAP1 residues 156-672), tag removed (domain or fragment, human, UniProt P46940 156-672, looked up)
chain: SLYLFKLGLAPQIQDLYGKVDFTEEEINNMKTELEKYGIQMPAFSKIGGILANELSVDEAALHAAVIAINEAIDRRIPADTFAALKNPNAMLVNLEEPLASTYQDILYQAKQDKMTNAKNRTENSERERDVYEELLTQAEIQGNINKVNTFSALANIDLALEQGDALALFRALQSPALGLRGLQQQNSDWYLKQLLSDKQQKRQSGQTDPLQKEELQSGVDAANSAAQQYQRRLAAVALINAAIQKGVAEKTVLELMNPEAQLPQVYPFAADLYQKELATLQRQSPEHNLTHPELSVAVEMLSSVALINRALESGDVNTVWKQLSSSVTGLTNIEEENCQRYLDELMKLKAQAHAENNEFITWNDIQACVDHVNLVVQEEHERILAIGLINEALDEGDAQKTLQALQIPAAKLEGVLAEVAQHYQDTLIRAKREKAQEIQDESAVLWLDEIQGGIWQSNKDTQEAQKFALGIFAINEAVESGDVGKTLSALRSPDVGLYGVIPECGETYHSDLAEAK

Ka (human RhoGDI): 55700 ± 940 M⁻¹
dH (human RhoGDI): -55.61 ± 0.335 kJ/mol
stoichiometry N (human RhoGDI): 0.853 ± 0.0003
B3: human Cdc42C188S, GDP-bound (natural protein)
chain: not shown

dH [2]: -16.7 ± 1.63 kJ/mol
stoichiometry N [2]: 1.33 ± 0.0688
B4: IQGAP2 Repeats (IQGAP2 residues 211-591) (domain or fragment, human, UniProt Q13576 211-591, looked up)
chain: EAALHAAVIAINEAVEKGIAEQTVVTLRNPNAVLTLVDDNLAPEYQKELWDAKKKKEENARLKNSCISEEERDAYEELLTQAEIQGNINKVNRQAAVDHINAVIPEGDPENTLLALKKPEAQLPAVYPFAAAMYQNELFNLQKQNTMNYLAHEELLIAVEMLSAVALLNQALESNDLVSVQNQLRSPAIGLNNLDKAYVERYANTLLSVKLEVLSQGQDNLSWNEIQNCIDMVNAQIQEENDRVVAVGYINEAIDEGNPLRTLETLLLPTANISDVDPAHAQHYQDVLYHAKSQKLGDSESVSKVLWLDEIQQAVDDANVDKDRAKQWVTLVVDVNQCLEGKKSSDILSVLKSSTSNANDIIPECADKYYDALVKAKELKS
